In the DeepSol protein solubility set:

Test: soluble on expression in E. coli; label from the status in PepcDB or PDB records

Soluble on expression in E. coli, soluble:
MSSDLYANAVLYSEISQRNPELVSKMFNEATRKKLDAFLKDNEAPKLKDIVTDNVFKKRKRIASSSGNEPPVKKMAAKDSSDSDSSDDGAVKKNGVQKPVNVAAKKSATPVQKKAESSSSSDSDAPAKKLTPVKKPAQTPAQKKAASSSDSDSDDEPPKKAPAVTTKVAPKPMAKKQDTSDSDSDSEDSDDGKSKKANPVKVTPVANVLQKVVAKKAASSSSDSSDDEKKPAAKPTPAKPTPKPVVKKAESSSDSSDDEKKPVAKPAPAKATPKPAAKKADSSSDSSDDEAPAKKTPAKAAPKPVAKKAESSSDSSDDEKKPAAKPTPAKATPKPVAKKAESSSDSSDDEKKPVAKPAPAKATPKPVAKKAESSSDSSDDEKKPAAKPTPAKATPKPVAKKAESSSDSSDDEKKPVAKPTSAKATPKPAAKKADSSSDSSDDEAPAKKTPAKAAPKPASKKAESSSDSSDDEKPAAKSTPAKITPKPTAKKVASSSSDSSDDEKKPAAKPTPANATPKPVAKKAESSSDSSDDEKKPVAKPTSAKATPKPAAKKADLSSDFSDDEAPAKKTPAKAAPKPASKKAESSSDSSDDEKPAAKSTPAKTTPKPTAKKAASSSSDSSDDEKKPVAKPTSAKATPKPAAKKADSSSDSSDDEAPAKKTPVKPTPVKIVAKKVDSSSDSSDDEKKPTKATPVKVTPKSVTKKAAASSSDSSDDEKKPVVKQTPNVVPKKEKAASSSDDSSDDEKKPTAKPTPKATPKQSAKKADSSDDSSDDEAPAKKTPAKSTPAKTAVKKEASSSSDDSSDDEKTKKKSATTPAKSTPKTALKKAESSDSSDDDEDLPKPSKAVTPRPQRADSEESAETEESSSRTPALKAKPLATSTEKAVYENRKRKSSPFRRVQMTKDSVSEKFRNNQHDSHFDQWGQRANESLGKVVGKAFRHEKTKKKKGSYGGGPINQSINSIKFSDSDD
ANSMLKGKVALVTGASRGIGRAIAKRLANDGALVAIHYGNRKEEAEETVYEIQSNGGSAFSIGANLESLHGVEALYSSLDNELQNRTGSTKFDILINNAGIGPGAFIEETTEQFFDRMVSVNAKAPFFIIQQALSRLRDNSRIINISSAATRISLPDFIAYSMTKGAINTMTFTLAKQLGARGITVNAILPGFVKTDMNAELLSDPMMKQYATTISAFNRLGEVEDIADTAAFLASPDSRWVTGQLIDVSGGSCL
VLKQGYMMKKGHRRKNWTERWFVLKPNIISYYVSEDLKDKKGDILLDENCCVESLPDKDGKKCLFLVKCFDKTFEISASDKKKKQEWIQAIHSTIHLLKLGS
MVEVVRNKRPPRGLVPRLRRALAALMEELGVGDKGVTVILTGDRRLRALKREWWGEAGKAYRKSVGPFGPGLPRPRAKCQPLIISTWRPHF
AIASTMVYPREERLEKLTQDEIISSTKLVIQGLEALKSEHNSILQSLLETIQCLKKDEEASLVHEKSSLLRKSVEMIELGLGEAQVMMALSNHLNAVESEKQKLRAQVRRLCQENQWLRDELANTQHKVQKSEQSVAQLEEEKKHLEFMNQLKKYDDGATPEVSPHNDMHRDVSLSVRQLKRLRESK
GEPDAQNWQHTVGKDVVAGLTQREIDRQEVINELFVTEASHLRTLRVLDLIFYQRMKKENLMPREELARLFPNLPELIEIHNSWCEAMKKLREEGPIIKEISDLMLARFDGPAREELQQVAAQFCSYQSIALELIKTKQRKESRFQLFMQEAESHPQCRRLQLRDLIISEMQRLTKYPLLLESIIKHTEGGTSEHEKLCRARDQCREILKYVNEAVKQTENRHRLEGYQKRLDATALERASNPLAAEFKSLDLTTRKMIHEGPLTWRISKDKTLDLHVLLLEDLLVLLQKQDEKLLLKCHSKTAVGSSDSKQTFSPVLKLNAVLIRSVATDKRAFFIICTSKLGPPQIYELVALTSSDKNTWMELLEEAVRNATRHPHHHHHH

Soluble on expression in E. coli, not soluble:
MLKDQDRIFTNLYGLKDKSLKGVMARGHWDGTKQIIEKGRDWIINEMKASGLRGRGGAGFPTGLKWSFMPKENDGRPHYLVVNADESEPGTCKDREILRNDPHTLIEGCVIAGFAMGAHTAYIYVRGEYMREREALQAAIDECYDAGLLGKNNKNGWDYDIYVHHGAGAYICGEETALLESLEGKKGQPRLKPPFPANMGLYGCPTTVNNVESIAVAPTILRRGASWFSSIGRPNNVGTKLFMVSGHVERPCTFEDALGLSFRELIEHHCGGIRGGWDNLLGVIPGGASCPIVRGEDMKDAIMDFDGMREVKSSFGTGGMIVMDKSTDVIKAIARIAAFFKHESCGQCTPCREGTGWMWRVLERMVKGNAQKREIDMLFEVTKQIEGHTICALGDAAAWPVQALIRNFRPEIEKRIDQYTYRAMDDGAVLEAAEAAALEHHHHHH
MLKSASSLVRSFIRPQTFRLCSSSSTTQGSPSVSSDDEPVILENNPYTKEPRKSFLCSTGVELDYKNSRLLQQFVSTFSGRVYDRHITGLCDENKKKLIEAIAKSRRAGFMPIFVKDPKYTRDPKLFDPLKPIRPHSFA
MALMNILPFARFLLDQAVNEGDIAVDATVGNGHDTVYLAERVGDFGHVFGFDIQPEAITAASARLAEHGLCGRATLFERSHSELLEALPADVHGRIAGAVFNLGYLPGGNKQIVTQPESTIEAVRQLLSVMKPGGVIVLVVYHGHPEGKRERDALLDYVRSLDQRRVHALKYEFINRQNNPPFLIALENRADGGA
MIRDYKSKLEFLAFYDELTGLPNKNSLIRWLNLKVSQMDCIDTYLIFLEVRDLEKLNVTYGYDLVDELIIHISKRIKDIAGEGNKAFKIGFDRFAIICKSENISDFIERMLSQLLLPYNVNGNLIRVNFNIGAAQIENSNEAAANLMRRCDLALIKAKEEGLNEYVIFKPSIELEHHHHHH
MKGRVVIADDEPITRMDIVEMLLEEGYDIVGEASDGFDAIELCKKHKPDLVLMDVKMPLLNGLKAAEVINQDELAACVVLVTAYSGREFVEEAKKAGAMGYVVKPINEKNLLPTLEVAVSKSKEFNEMKSQVKKAQVQLEDRKQIERAKGILMKKEMLSEEEAYNQIRKLSMSKRCSMGEIAKIITMNQ
SEEDIDTRKINNSFLRDHSYATEADIISTVEFNHTGELLATGDKGGRVVIFQREQESKNQVHRRGEYNVYSTFQSHEPEFDYLKSLEIEEKINKIRWLPQQNAAYFLLSTNDKTVKLWKVSERDKRPEGYNLKDEEGRLRDPATITTLRVPVLRPMDLMVEATPRRVFANAHTYHINSISVNSDYETYMSADDLRINLWNFEITNQSFNIVDIKPANMEELTEVITAAEFHPHHCNTFVYSSSKGTIRLCDMRASALCDRHTKFFEEPEDPSNRSFFSEIISSISDVKFSHSGRYIMTRDYLTVKVWDLNMENRPIETYQVHDYLRSKLCSLYENDCIFDKFECVWNGSDSVIMTGSYNNFFRMFDRNTKRDVTLEASRENSKPRAILKPRKVCVGGKRRKDEISVDSLDFSKKILHTAWHPSENIIAVAATNNLYIFQDKVN
MSLTGNPPNPAGIKTDYLWKKILTPQGLTDILENYAQVVEEKDEKTGKKKKVQIFPRYHQLDVVRKLLAHAEWHGAGMRYLVQHSAGSGKSNSIAWLAHQLISLKKDDKEIFDSIIVITDRRVLDKQIRDTIKQFAQVGSTVGHAERSGDLRKFIESGKKIIISTVQKFPFILDEIGNEHRGRKFAIIIDEAHSSQGGRTAAAMSEALSDSKDQKDPEDTINDALQKRMEARKMLPNASYFAFTATPKNKTLELFGEPYKDGDKIKHRPFHNYTMKQAIQEGFILDVLRYYTPVNSYYKLIKTVESDPEFDTKKAKKKLRKYVESHDYAIRLKAEIIVDHFQEQVIALNKIGGQARAMVVTNGIERAIQYYHAIRDYLLELNSPYKAIVAFSGEHEYGGVKVTEATLNGFPSSQIEDKIEEEPYRFLICADKFQTGYDEPLLHTMYVDKVLSGIKAVQTLSRLNRAHPKKHDVFVLDFMNDTDTIQDAFSDYYRTTVLSDETDPNKLHDLKSDLDSYQAYSPEQIEQFVELYLGGADRDKLDPILDVCVATYKDHLDEDEQVDFKSKAKAFSRTYGFLASILPYTNADWEKLSIFLNFLIPKLPAPREEDLSKGILEAIDMDSYRVEKQAVVNIQLPDSDSEIEPVPTEAGGFKPEPELDRLSNILKTFNDQFGNIRWTDSDRVHRLITEEIPARVAADVAYQNAKKNSDKQNAKIEHDKALARVMIALMKDDTQLFKLFSDNESFRRTLTDAIFERTYSEGHHHHHH
SYSYVYIYMPTWREDKRNILEIIDFDRLNQLCIKNNNLFLFRLHPNTEINLDMLVSYSNLRIIDSSCDIYPILPFTDVLITDYSSIYYDYMLIPNKQILLFPFDEEEYCTFNRDLAFDYKIYTPGIRIYSFEALLEIVESKKNLNIKEIKVIKKLFWKGRNESIIDRIIN
